From the supplement of paper PMC9112550, “Optimization of the antimicrobial peptide Bac7 by deep mutational scanning” (BMC Biology, 2022)

Tested on: Escherichia coli TOP10
Test: shrunken log2 fold change of peptide-encoding DNA abundance (4.5 h post-induction vs induction); higher = less antimicrobial activity (less host growth inhibition)
Details: time post-induction: 4.5 h; library: site-saturation at positions 5, 18, 19, 20
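Note: peptides expressed intracellularly from a pBAD plasmid library in pooled LB shake-flask culture, induced with 0.3% L-arabinose, DNA abundance read by NGS, three biological replicates, DESeq2 with apeglm shrinkage.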

Sequence: RRIRIRPPRLPRPRPRPHEGPRP
- shrunken log2 fold change: -0.0113

Sequence: RRIRMRPPRLPRPRPRPKKFPRP
- shrunken log2 fold change: 0.358

Sequence: RRIRSRPPRLPRPRPRPLDWPRP
- shrunken log2 fold change: 0.262

Sequence: RRIRPRPPRLPRPRPRPWIYPRP
- shrunken log2 fold change: -0.584

Sequence: RRIRYRPPRLPRPRPRPGVLPRP
- shrunken log2 fold change: -0.916

Sequence: RRIRNRPPRLPRPRPRPNYPPRP
- shrunken log2 fold change: -0.0819

Sequence: RRIRIRPPRLPRPRPRPIIFPRP
- shrunken log2 fold change: -0.667

Sequence: RRIRGRPPRLPRPRPRPVWNPRP
- shrunken log2 fold change: 0.0596

Sequence: RRIRWRPPRLPRPRPRPKAYPRP
- shrunken log2 fold change: -0.12

Sequence: RRIRSRPPRLPRPRPRPNVHPRP
- shrunken log2 fold change: -0.312

Sequence: RRIRTRPPRLPRPRPRPAMPPRP
- shrunken log2 fold change: 0.131

Sequence: RRIRPRPPRLPRPRPRPVHGPRP
- shrunken log2 fold change: 0.0843

Sequence: RRIRDRPPRLPRPRPRPEAGPRP
- shrunken log2 fold change: 0.67

Sequence: RRIRHRPPRLPRPRPRPKPGPRP
- shrunken log2 fold change: 0.21

Sequence: RRIRIRPPRLPRPRPRPRYQPRP
- shrunken log2 fold change: 0.00748

Sequence: RRIRMRPPRLPRPRPRPDRMPRP
- shrunken log2 fold change: 0.422

Sequence: RRIRMRPPRLPRPRPRPHVIPRP
- shrunken log2 fold change: 0.00402

Sequence: RRIRVRPPRLPRPRPRPQPIPRP
- shrunken log2 fold change: -0.375

Sequence: RRIRIRPPRLPRPRPRPAIMPRP
- shrunken log2 fold change: -0.565

Sequence: RRIRWRPPRLPRPRPRPPVVPRP
- shrunken log2 fold change: 0.13

Sequence: RRIRERPPRLPRPRPRPFRYPRP
- shrunken log2 fold change: -0.268

Sequence: RRIRKRPPRLPRPRPRPSRGPRP
- shrunken log2 fold change: 0.741

Sequence: RRIRWRPPRLPRPRPRPAKDPRP
- shrunken log2 fold change: 0.0218

Sequence: RRIRARPPRLPRPRPRPMAVPRP
- shrunken log2 fold change: 0.209

Sequence: RRIRTRPPRLPRPRPRPSNWPRP
- shrunken log2 fold change: -0.281

Sequence: RRIRLRPPRLPRPRPRPCEAPRP
- shrunken log2 fold change: 0.125

Sequence: RRIRYRPPRLPRPRPRPKKAPRP
- shrunken log2 fold change: -0.0344

Sequence: RRIRERPPRLPRPRPRPLWMPRP
- shrunken log2 fold change: 0.00675

Sequence: RRIRKRPPRLPRPRPRPNHKPRP
- shrunken log2 fold change: -0.203

Sequence: RRIRERPPRLPRPRPRPIEHPRP
- shrunken log2 fold change: -0.00973

Sequence: RRIRVRPPRLPRPRPRPFGRPRP
- shrunken log2 fold change: 0.0302

Sequence: RRIRHRPPRLPRPRPRPTYQPRP
- shrunken log2 fold change: 0.0668

Sequence: RRIRNRPPRLPRPRPRPHETPRP
- shrunken log2 fold change: -0.127

Sequence: RRIRWRPPRLPRPRPRPISEPRP
- shrunken log2 fold change: 0.00628

Sequence: RRIRPRPPRLPRPRPRPDYRPRP
- shrunken log2 fold change: -0.321

Sequence: RRIRWRPPRLPRPRPRPAKIPRP
- shrunken log2 fold change: 0.132

Sequence: RRIRDRPPRLPRPRPRPKVVPRP
- shrunken log2 fold change: -0.01

Sequence: RRIRCRPPRLPRPRPRPQGLPRP
- shrunken log2 fold change: 0.161

Sequence: RRIRGRPPRLPRPRPRPLLCPRP
- shrunken log2 fold change: 1.17

Sequence: RRIRGRPPRLPRPRPRPDHQPRP
- shrunken log2 fold change: 0.12

Sequence: RRIRTRPPRLPRPRPRPAKHPRP
- shrunken log2 fold change: 0.0349

Sequence: RRIRRRPPRLPRPRPRPEFGPRP
- shrunken log2 fold change: 0.376

Sequence: RRIRTRPPRLPRPRPRPYLLPRP
- shrunken log2 fold change: -0.654

Sequence: RRIRRRPPRLPRPRPRPDAEPRP
- shrunken log2 fold change: 1.62

Sequence: RRIRPRPPRLPRPRPRPHNKPRP
- shrunken log2 fold change: -0.508

Sequence: RRIRRRPPRLPRPRPRPQDVPRP
- shrunken log2 fold change: -0.108

Sequence: RRIRQRPPRLPRPRPRPHCHPRP
- shrunken log2 fold change: -0.164

Sequence: RRIRNRPPRLPRPRPRPWAGPRP
- shrunken log2 fold change: 0.163

Sequence: RRIRERPPRLPRPRPRPIFWPRP
- shrunken log2 fold change: 0.167

Sequence: RRIRDRPPRLPRPRPRPNSSPRP
- shrunken log2 fold change: -0.675

Sequence: RRIRARPPRLPRPRPRPAHKPRP
- shrunken log2 fold change: 0.664

Sequence: RRIRFRPPRLPRPRPRPDRGPRP
- shrunken log2 fold change: 0.0145

Sequence: RRIRGRPPRLPRPRPRPLTHPRP
- shrunken log2 fold change: 0.168

Sequence: RRIRTRPPRLPRPRPRPEPKPRP
- shrunken log2 fold change: 0.376

Sequence: RRIRFRPPRLPRPRPRPMYEPRP
- shrunken log2 fold change: -0.309

Sequence: RRIRRRPPRLPRPRPRPHLRPRP
- shrunken log2 fold change: 0.298

Sequence: RRIRRRPPRLPRPRPRPDRGPRP
- shrunken log2 fold change: -0.216

Sequence: RRIRVRPPRLPRPRPRPNTQPRP
- shrunken log2 fold change: -0.0658

Sequence: RRIRMRPPRLPRPRPRPYCRPRP
- shrunken log2 fold change: -0.0603

Sequence: RRIRCRPPRLPRPRPRPASKPRP
- shrunken log2 fold change: -0.438

Sequence: RRIRVRPPRLPRPRPRPCIIPRP
- shrunken log2 fold change: -0.0793

Sequence: RRIRTRPPRLPRPRPRPINIPRP
- shrunken log2 fold change: -0.208

Sequence: RRIRVRPPRLPRPRPRPYDCPRP
- shrunken log2 fold change: -0.9

Sequence: RRIRVRPPRLPRPRPRPHLTPRP
- shrunken log2 fold change: -0.333

Sequence: RRIRTRPPRLPRPRPRPRFQPRP
- shrunken log2 fold change: 0.177

Sequence: RRIRNRPPRLPRPRPRPCQYPRP
- shrunken log2 fold change: -0.0135

Sequence: RRIRRRPPRLPRPRPRPIMHPRP
- shrunken log2 fold change: -0.094

Sequence: RRIRKRPPRLPRPRPRPSCLPRP
- shrunken log2 fold change: -0.307

Sequence: RRIRLRPPRLPRPRPRPWLWPRP
- shrunken log2 fold change: -0.106

Sequence: RRIRPRPPRLPRPRPRPENRPRP
- shrunken log2 fold change: 0.0972

Sequence: RRIRLRPPRLPRPRPRPQSHPRP
- shrunken log2 fold change: -0.349

Sequence: RRIRKRPPRLPRPRPRPDLNPRP
- shrunken log2 fold change: 0.332

Sequence: RRIRIRPPRLPRPRPRPVYGPRP
- shrunken log2 fold change: -0.351

Sequence: RRIRSRPPRLPRPRPRPHEPPRP
- shrunken log2 fold change: -0.154

Sequence: RRIRGRPPRLPRPRPRPACGPRP
- shrunken log2 fold change: 0.967

Sequence: RRIRRRPPRLPRPRPRPCSNPRP
- shrunken log2 fold change: -0.166

Sequence: RRIRHRPPRLPRPRPRPQCIPRP
- shrunken log2 fold change: -0.235

Sequence: RRIRTRPPRLPRPRPRPMGIPRP
- shrunken log2 fold change: 0.049

Sequence: RRIRSRPPRLPRPRPRPWCQPRP
- shrunken log2 fold change: -0.119

Sequence: RRIRNRPPRLPRPRPRPIYVPRP
- shrunken log2 fold change: -0.892

Sequence: RRIRRRPPRLPRPRPRPYTYPRP
- shrunken log2 fold change: 0.0668

Sequence: RRIRKRPPRLPRPRPRPPDTPRP
- shrunken log2 fold change: 0.896

Sequence: RRIRYRPPRLPRPRPRPQVHPRP
- shrunken log2 fold change: -0.0163

Sequence: RRIRDRPPRLPRPRPRPMWDPRP
- shrunken log2 fold change: 0.00712

Sequence: RRIRVRPPRLPRPRPRPMHPPRP
- shrunken log2 fold change: 0.0843

Sequence: RRIRMRPPRLPRPRPRPCVQPRP
- shrunken log2 fold change: -0.0115

Sequence: RRIRFRPPRLPRPRPRPKSKPRP
- shrunken log2 fold change: -0.0737

Sequence: RRIRNRPPRLPRPRPRPSWKPRP
- shrunken log2 fold change: 0.0635

Sequence: RRIRVRPPRLPRPRPRPKKDPRP
- shrunken log2 fold change: -0.262

Sequence: RRIRARPPRLPRPRPRPHVNPRP
- shrunken log2 fold change: -0.467

Sequence: RRIRCRPPRLPRPRPRPRMCPRP
- shrunken log2 fold change: 0.337

Sequence: RRIRTRPPRLPRPRPRPSLFPRP
- shrunken log2 fold change: -0.248

Sequence: RRIRTRPPRLPRPRPRPHIYPRP
- shrunken log2 fold change: -0.00363

Sequence: RRIRARPPRLPRPRPRPARSPRP
- shrunken log2 fold change: 0.31

Sequence: RRIRSRPPRLPRPRPRPAKPPRP
- shrunken log2 fold change: -0.146

Sequence: RRIRPRPPRLPRPRPRPSTEPRP
- shrunken log2 fold change: -0.0218

Sequence: RRIRDRPPRLPRPRPRPWYHPRP
- shrunken log2 fold change: -0.0258

Sequence: RRIRNRPPRLPRPRPRPNATPRP
- shrunken log2 fold change: -0.185

Sequence: RRIRDRPPRLPRPRPRPNVDPRP
- shrunken log2 fold change: 0.0276

Sequence: RRIRGRPPRLPRPRPRPYVMPRP
- shrunken log2 fold change: -0.0513

Sequence: RRIRSRPPRLPRPRPRPGNCPRP
- shrunken log2 fold change: -0.0261

Sequence: RRIRWRPPRLPRPRPRPCEHPRP
- shrunken log2 fold change: 0.0123

Sequence: RRIRFRPPRLPRPRPRPKYPPRP
- shrunken log2 fold change: -0.31

Sequence: RRIRRRPPRLPRPRPRPSGQPRP
- shrunken log2 fold change: 0.306

Sequence: RRIRSRPPRLPRPRPRPGQMPRP
- shrunken log2 fold change: 0.206

Sequence: RRIRIRPPRLPRPRPRPFPHPRP
- shrunken log2 fold change: -0.174

Sequence: RRIRTRPPRLPRPRPRPEWSPRP
- shrunken log2 fold change: 0.0383

Sequence: RRIRVRPPRLPRPRPRPYREPRP
- shrunken log2 fold change: -0.3

Sequence: RRIRVRPPRLPRPRPRPHSYPRP
- shrunken log2 fold change: -0.262

Sequence: RRIRVRPPRLPRPRPRPWMHPRP
- shrunken log2 fold change: -0.406

Sequence: RRIRMRPPRLPRPRPRPGRWPRP
- shrunken log2 fold change: 1.66

Sequence: RRIRMRPPRLPRPRPRPMHHPRP
- shrunken log2 fold change: 0.0123

Sequence: RRIRWRPPRLPRPRPRPDTPPRP
- shrunken log2 fold change: 0.126

Sequence: RRIRNRPPRLPRPRPRPARHPRP
- shrunken log2 fold change: 0.0771

Sequence: RRIRGRPPRLPRPRPRPPKAPRP
- shrunken log2 fold change: 0.63

Sequence: RRIRYRPPRLPRPRPRPRMYPRP
- shrunken log2 fold change: -0.627

Sequence: RRIRPRPPRLPRPRPRPIAQPRP
- shrunken log2 fold change: 0.487

Sequence: RRIRQRPPRLPRPRPRPRRSPRP
- shrunken log2 fold change: -0.0497

Sequence: RRIRHRPPRLPRPRPRPSRWPRP
- shrunken log2 fold change: 0.102

Sequence: RRIRLRPPRLPRPRPRPSNCPRP
- shrunken log2 fold change: -0.581

Sequence: RRIRPRPPRLPRPRPRPGEAPRP
- shrunken log2 fold change: 0.426

Sequence: RRIRQRPPRLPRPRPRPSSAPRP
- shrunken log2 fold change: 2.99

Sequence: RRIRNRPPRLPRPRPRPQRHPRP
- shrunken log2 fold change: -0.0566

Sequence: RRIRRRPPRLPRPRPRPARWPRP
- shrunken log2 fold change: 1.13

Sequence: RRIRIRPPRLPRPRPRPGYGPRP
- shrunken log2 fold change: -0.309

Sequence: RRIRERPPRLPRPRPRPVPFPRP
- shrunken log2 fold change: -0.229

Sequence: RRIRYRPPRLPRPRPRPLFHPRP
- shrunken log2 fold change: -0.818

Sequence: RRIRMRPPRLPRPRPRPFNAPRP
- shrunken log2 fold change: 0.00535

Sequence: RRIRYRPPRLPRPRPRPIKSPRP
- shrunken log2 fold change: -0.616

Sequence: RRIRYRPPRLPRPRPRPTDIPRP
- shrunken log2 fold change: -0.031

Sequence: RRIRKRPPRLPRPRPRPQMKPRP
- shrunken log2 fold change: -0.0666

Sequence: RRIRKRPPRLPRPRPRPYFPPRP
- shrunken log2 fold change: -0.348

Sequence: RRIRQRPPRLPRPRPRPDPMPRP
- shrunken log2 fold change: -0.0539

Sequence: RRIRNRPPRLPRPRPRPFIDPRP
- shrunken log2 fold change: -0.114

Sequence: RRIRIRPPRLPRPRPRPMYWPRP
- shrunken log2 fold change: -0.291

Sequence: RRIRGRPPRLPRPRPRPWETPRP
- shrunken log2 fold change: 0.272

Sequence: RRIRKRPPRLPRPRPRPRIMPRP
- shrunken log2 fold change: 0.0472

Sequence: RRIRVRPPRLPRPRPRPGEQPRP
- shrunken log2 fold change: -0.0154

Sequence: RRIRFRPPRLPRPRPRPMKEPRP
- shrunken log2 fold change: -0.187

Sequence: RRIRLRPPRLPRPRPRPELLPRP
- shrunken log2 fold change: 0.335

Sequence: RRIRARPPRLPRPRPRPMGSPRP
- shrunken log2 fold change: 0.0355

Sequence: RRIRDRPPRLPRPRPRPLHEPRP
- shrunken log2 fold change: -0.129

Sequence: RRIRIRPPRLPRPRPRPNPLPRP
- shrunken log2 fold change: -0.0976

Sequence: RRIRWRPPRLPRPRPRPSVWPRP
- shrunken log2 fold change: 0.218

Sequence: RRIRRRPPRLPRPRPRPLMGPRP
- shrunken log2 fold change: 0.018

Sequence: RRIRWRPPRLPRPRPRPMGCPRP
- shrunken log2 fold change: 0.117

Sequence: RRIRSRPPRLPRPRPRPGQQPRP
- shrunken log2 fold change: 0.0543

Sequence: RRIRHRPPRLPRPRPRPKKWPRP
- shrunken log2 fold change: -0.0201

Sequence: RRIRFRPPRLPRPRPRPHQGPRP
- shrunken log2 fold change: -0.0419

Sequence: RRIRSRPPRLPRPRPRPWDDPRP
- shrunken log2 fold change: -0.0242
